Measurements: the supplement of paper PMC10567573
± gives the standard deviation.

Assay: protein stability index of a GFP-peptide fusion (GPS, HEK-293T) (PSI 1-6); higher = more stable
Details: c terminus: a fixed tail appended
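Further: 24-mer peptide tiles fused after GFP, lentivirally expressed, FACS-sorted into six equal bins by GFP/DsRed ratio, decoded by Illumina sequencing, PSI is the read-weighted mean bin number.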

Sequence TCRNPACGPQWEMSEWSECTAKCG [ADAMTSL2] has a protein stability index (treatment: DMSO) of 3.28 ± 0.29 and a protein stability index (treatment: MLN4924 1 uM, 8 h) of 3.93 ± 0.53.
TDKLVTPGKYFSAAEYHAQRLKAV [IQUB] gave a protein stability index (treatment: DMSO) of 3.4 ± 0.21 and a protein stability index (treatment: MLN4924 1 uM, 8 h) of 3.19 ± 0.31.
For TDKQPLSDAWTYCISKNEWIQFNH [KLHDC2], the protein stability index (treatment: DMSO) was 2.5 ± 0.2 and the protein stability index (treatment: MLN4924 1 uM, 8 h) was 2.67 ± 0.27.
For TDRRSFHEVREFKQLIYRVRRTDD [RIT1], the protein stability index (treatment: DMSO) was 3.03 ± 0.085 and the protein stability index (treatment: MLN4924 1 uM, 8 h) was 3.12 ± 0.14.
Sequence TEGGNDDSDFRELHTAREFSEEDE [RTN2] has a protein stability index (treatment: DMSO) of 5.42 ± 0.36 and a protein stability index (treatment: MLN4924 1 uM, 8 h) of 5.13 ± 0.71.
TELLAERFYYQALSVAPQIGMPFN [SMG5] showed a protein stability index (treatment: DMSO) of 2.21 ± 0.34 and a protein stability index (treatment: MLN4924 1 uM, 8 h) of 2.16 ± 0.17.
Work on TEMELLEVSQHIKMRMGGRVDFEE [CABP4] yielded a protein stability index (treatment: DMSO) of 4.11 ± 0.25 and a protein stability index (treatment: MLN4924 1 uM, 8 h) of 4.08 ± 0.099.
In the case of TEQAAEYVPEKVKKAEKKLEENPY [CSTF3], the protein stability index (treatment: DMSO) is reported as 5.52 ± 0.3 and the protein stability index (treatment: MLN4924 1 uM, 8 h) is reported as 5.37 ± 0.14.
Work on TFDAITTIRGEVMFFKDRFYMRTN [MMP1] yielded a protein stability index (treatment: DMSO) of 2.25 ± 0.41 and a protein stability index (treatment: MLN4924 1 uM, 8 h) of 2.07 ± 0.19.
Work on TFKSLSHIDPDVLYPSLNVTSFDS [ALG2] yielded a protein stability index (treatment: DMSO) of 2.77 ± 0.14 and a protein stability index (treatment: MLN4924 1 uM, 8 h) of 2.92 ± 0.19.
TGITLLRVKFKSQQHRQGRSHHLE [PTGFR] showed a protein stability index (treatment: DMSO) of 2.24 ± 0.29 and a protein stability index (treatment: MLN4924 1 uM, 8 h) of 2.44 ± 0.34.
TGRHYWEVDVQEAGAGWWVGAAYA [TRIM14] showed a protein stability index (treatment: DMSO) of 2.62 ± 0.8 and a protein stability index (treatment: MLN4924 1 uM, 8 h) of 2.58 ± 0.82.
Sequence TGSKEKGLTKKRTKVQKKSLLLKK [NOP53] has a protein stability index (treatment: DMSO) of 4.48 ± 0.24 and a protein stability index (treatment: MLN4924 1 uM, 8 h) of 4.72 ± 0.22.
Work on TGTYQRAILQNHTDFKDKIVLDVG [CARM1] yielded a protein stability index (treatment: DMSO) of 3.34 ± 0.092 and a protein stability index (treatment: MLN4924 1 uM, 8 h) of 3.35 ± 0.27.
For THHKLCTFILKNPPENSDSGTGKK [EIF5], the protein stability index (treatment: DMSO) was 3.95 ± 0.27 and the protein stability index (treatment: MLN4924 1 uM, 8 h) was 4.28 ± 0.18.
Work on THNIAHGSLGFEPVYVSCIAQDTC [SPAG8] yielded a protein stability index (treatment: DMSO) of 2.69 ± 0.14 and a protein stability index (treatment: MLN4924 1 uM, 8 h) of 2.64 ± 0.2.
For TIMQAVSQIRLNREHKETCEMDWS [TEKT4], the protein stability index (treatment: DMSO) was 2.3 ± 0.27 and the protein stability index (treatment: MLN4924 1 uM, 8 h) was 2.44 ± 0.21.
In the case of TKAGHSLELIEPLIKFQVGLKKLN [VDR], the protein stability index (treatment: DMSO) is reported as 2.19 ± 0.38 and the protein stability index (treatment: MLN4924 1 uM, 8 h) is reported as 2.42 ± 0.25.
For TKLEERSRVKCDQYWPSRGTETHG [PTPRD], the protein stability index (treatment: DMSO) was 3.97 ± 0.14 and the protein stability index (treatment: MLN4924 1 uM, 8 h) was 3.71 ± 0.54.
For TLFKKIQALQKEKETLAVNYEKEE [CCDC6], the protein stability index (treatment: DMSO) was 3.52 ± 0.27 and the protein stability index (treatment: MLN4924 1 uM, 8 h) was 3.35 ± 0.086.
Work on TLGGLNPSPSEVITPWTPSPSEKN [SMTNL2] yielded a protein stability index (treatment: DMSO) of 5.21 ± 0.25 and a protein stability index (treatment: MLN4924 1 uM, 8 h) of 5.08 ± 0.14.
TLREITDQEHNVAALKQAIKDKEA [TEKT4] showed a protein stability index (treatment: DMSO) of 4.92 ± 0.27 and a protein stability index (treatment: MLN4924 1 uM, 8 h) of 4.88 ± 0.26.
Sequence TMAQHAEVLVKSNNLTDRIVVIPG [CARM1] has a protein stability index (treatment: DMSO) of 3.08 ± 0.22 and a protein stability index (treatment: MLN4924 1 uM, 8 h) of 3.36 ± 0.23.
With TMRYINGLDPEPLPLMDLCRRSIR [SPSB4] the protein stability index (treatment: DMSO) was 3.31 ± 0.36 and the protein stability index (treatment: MLN4924 1 uM, 8 h) was 3.42 ± 0.3.
In the case of TNSSSLRLPRQNSDGGQKNKPREH [WSB1], the protein stability index (treatment: DMSO) is reported as 5.02 ± 0.15 and the protein stability index (treatment: MLN4924 1 uM, 8 h) is reported as 4.93 ± 0.072.
With TNVESQLAEIRCDLERQNQEYQVL [KRT34] the protein stability index (treatment: DMSO) was 4.32 ± 0.21 and the protein stability index (treatment: MLN4924 1 uM, 8 h) was 4.27 ± 0.17.
Work on TPLLAASVTGHTNIVEYLIQEQPG [FEM1A] yielded a protein stability index (treatment: DMSO) of 3.39 ± 0.17 and a protein stability index (treatment: MLN4924 1 uM, 8 h) of 3.67 ± 0.32.
In the case of TPMNHQKAVNDETCKASHITSSVF [FBXO34], the protein stability index (treatment: DMSO) is reported as 3.75 ± 0.075 and the protein stability index (treatment: MLN4924 1 uM, 8 h) is reported as 3.77 ± 0.1.
Sequence TPVILVGCQLDLRYADLEAVNRAR [RHOBTB1] has a protein stability index (treatment: DMSO) of 2.46 ± 0.09 and a protein stability index (treatment: MLN4924 1 uM, 8 h) of 2.34 ± 0.39.
In the case of TQCSEEDQCKINKQIYNLIHLDPR [FEM1B], the protein stability index (treatment: DMSO) is reported as 3.48 ± 0.12 and the protein stability index (treatment: MLN4924 1 uM, 8 h) is reported as 3.4 ± 0.28.
TQLFIGGVTGWCTGFIFQKVGKLA [FUNDC2] gave a protein stability index (treatment: DMSO) of 2.33 ± 0.39 and a protein stability index (treatment: MLN4924 1 uM, 8 h) of 2.32 ± 0.28.
Sequence TRLYLRSHRPNMELCRDAAQFRLL [TEKT4] has a protein stability index (treatment: DMSO) of 2.16 ± 0.44 and a protein stability index (treatment: MLN4924 1 uM, 8 h) of 2.27 ± 0.32.
TSIVYATEKKQTKVEFPEARIYEE [KCTD10] gave a protein stability index (treatment: DMSO) of 4.5 ± 0.12 and a protein stability index (treatment: MLN4924 1 uM, 8 h) of 4.21 ± 0.55.
Work on TSPSPERSLLLKYARTPTLDPDTM [TRIM14] yielded a protein stability index (treatment: DMSO) of 3.89 ± 0.66 and a protein stability index (treatment: MLN4924 1 uM, 8 h) of 4.29 ± 0.32.
Work on TTCSTPLLNSPPSFVCWSRGFMEM [AUP1] yielded a protein stability index (treatment: DMSO) of 2.21 ± 0.26 and a protein stability index (treatment: MLN4924 1 uM, 8 h) of 2.33 ± 0.31.
With TTGLQVPSAVRCLQKRGSATSSSN [FSD1] the protein stability index (treatment: DMSO) was 4.13 ± 0.12 and the protein stability index (treatment: MLN4924 1 uM, 8 h) was 3.99 ± 0.14.
TTHFQSIPDAFWWAVVTMTTVGYG [KCNA4] gave a protein stability index (treatment: DMSO) of 3.05 ± 0.88 and a protein stability index (treatment: MLN4924 1 uM, 8 h) of 2.96 ± 0.33.
With TVCDDKWDLVSASVVCRELGFGSA [LOXL2] the protein stability index (treatment: DMSO) was 2.54 ± 0.49 and the protein stability index (treatment: MLN4924 1 uM, 8 h) was 2.7 ± 0.2.
Sequence TVLTRHSQPATPTPLQSRTSIVQA [PDLIM7] has a protein stability index (treatment: DMSO) of 3.77 ± 0.093 and a protein stability index (treatment: MLN4924 1 uM, 8 h) of 3.8 ± 0.28.
In the case of TVLVSVTVFDANDNAPVFTLPEYR [PCDHGA10], the protein stability index (treatment: DMSO) is reported as 2.76 ± 0.43 and the protein stability index (treatment: MLN4924 1 uM, 8 h) is reported as 2.58 ± 0.36.
For TWWRVRNAANRTGYVPSNYVERKN [NCK2], the protein stability index (treatment: DMSO) was 2.86 ± 0.14 and the protein stability index (treatment: MLN4924 1 uM, 8 h) was 3.06 ± 0.27.
VAALVVNFSQPVAGRPSLLRHDEV [NLN] gave a protein stability index (treatment: DMSO) of 2.46 ± 0.49 and a protein stability index (treatment: MLN4924 1 uM, 8 h) of 2.48 ± 0.36.
Sequence VAREYYSEADASHCIQQILEAVLH [CAMK2B] has a protein stability index (treatment: DMSO) of 2.29 ± 0.3 and a protein stability index (treatment: MLN4924 1 uM, 8 h) of 2.87 ± 0.49.
VASAPLQPPVPSLSEVKPPPPPPP [TRADD] gave a protein stability index (treatment: DMSO) of 5.02 ± 0.15 and a protein stability index (treatment: MLN4924 1 uM, 8 h) of 4.71 ± 0.34.
